Data reported in patent US20240101645A1 (HENRY M JACKSON FOUNDATION FOR THE ADVANCEMENT OF MILITARY …, published 2024).

What was measured:
[1] = molecular target: T1, HCoV-HKU1 spike antigens (bead panel) (HCoV-HKU1, UniProt Q5MQD0 13-1300); assay: multiplex bead assay
T1 sequence: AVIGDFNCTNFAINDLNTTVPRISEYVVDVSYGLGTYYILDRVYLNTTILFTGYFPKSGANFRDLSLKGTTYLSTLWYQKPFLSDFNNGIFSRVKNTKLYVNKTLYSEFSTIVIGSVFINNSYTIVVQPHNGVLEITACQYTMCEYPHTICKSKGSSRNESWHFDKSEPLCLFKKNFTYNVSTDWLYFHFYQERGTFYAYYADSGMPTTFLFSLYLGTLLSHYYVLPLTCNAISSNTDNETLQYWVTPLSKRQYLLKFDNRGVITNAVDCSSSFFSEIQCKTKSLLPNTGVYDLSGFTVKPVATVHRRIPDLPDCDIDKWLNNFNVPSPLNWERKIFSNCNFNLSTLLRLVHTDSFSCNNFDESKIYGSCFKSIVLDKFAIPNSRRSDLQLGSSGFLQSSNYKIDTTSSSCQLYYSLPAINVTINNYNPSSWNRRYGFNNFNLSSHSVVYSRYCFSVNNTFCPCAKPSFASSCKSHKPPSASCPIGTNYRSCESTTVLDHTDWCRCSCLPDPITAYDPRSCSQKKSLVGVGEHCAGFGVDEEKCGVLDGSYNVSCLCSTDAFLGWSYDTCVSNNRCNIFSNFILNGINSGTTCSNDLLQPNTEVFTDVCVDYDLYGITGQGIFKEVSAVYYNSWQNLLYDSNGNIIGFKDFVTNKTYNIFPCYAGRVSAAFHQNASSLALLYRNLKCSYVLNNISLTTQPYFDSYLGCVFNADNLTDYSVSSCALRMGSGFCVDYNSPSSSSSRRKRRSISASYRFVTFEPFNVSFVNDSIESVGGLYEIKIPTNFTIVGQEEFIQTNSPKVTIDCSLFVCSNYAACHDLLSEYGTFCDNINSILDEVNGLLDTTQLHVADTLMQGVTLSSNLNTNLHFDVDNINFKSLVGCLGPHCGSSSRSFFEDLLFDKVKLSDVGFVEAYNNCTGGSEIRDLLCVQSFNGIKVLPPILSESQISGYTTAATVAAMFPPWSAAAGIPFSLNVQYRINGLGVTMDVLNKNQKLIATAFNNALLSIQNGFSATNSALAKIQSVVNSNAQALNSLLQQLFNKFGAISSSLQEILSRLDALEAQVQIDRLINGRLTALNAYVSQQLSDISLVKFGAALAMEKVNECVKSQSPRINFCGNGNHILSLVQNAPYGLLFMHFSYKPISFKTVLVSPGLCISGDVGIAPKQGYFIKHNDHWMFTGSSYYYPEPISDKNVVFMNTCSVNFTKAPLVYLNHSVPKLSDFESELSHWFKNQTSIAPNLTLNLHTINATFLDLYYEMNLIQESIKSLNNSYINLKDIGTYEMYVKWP

[2] = molecular target: T2, HCoV-NL63 spike antigens (bead panel) (HCoV-NL63, UniProt Q6Q1S2 19-1296); assay: multiplex bead assay
T2 sequence: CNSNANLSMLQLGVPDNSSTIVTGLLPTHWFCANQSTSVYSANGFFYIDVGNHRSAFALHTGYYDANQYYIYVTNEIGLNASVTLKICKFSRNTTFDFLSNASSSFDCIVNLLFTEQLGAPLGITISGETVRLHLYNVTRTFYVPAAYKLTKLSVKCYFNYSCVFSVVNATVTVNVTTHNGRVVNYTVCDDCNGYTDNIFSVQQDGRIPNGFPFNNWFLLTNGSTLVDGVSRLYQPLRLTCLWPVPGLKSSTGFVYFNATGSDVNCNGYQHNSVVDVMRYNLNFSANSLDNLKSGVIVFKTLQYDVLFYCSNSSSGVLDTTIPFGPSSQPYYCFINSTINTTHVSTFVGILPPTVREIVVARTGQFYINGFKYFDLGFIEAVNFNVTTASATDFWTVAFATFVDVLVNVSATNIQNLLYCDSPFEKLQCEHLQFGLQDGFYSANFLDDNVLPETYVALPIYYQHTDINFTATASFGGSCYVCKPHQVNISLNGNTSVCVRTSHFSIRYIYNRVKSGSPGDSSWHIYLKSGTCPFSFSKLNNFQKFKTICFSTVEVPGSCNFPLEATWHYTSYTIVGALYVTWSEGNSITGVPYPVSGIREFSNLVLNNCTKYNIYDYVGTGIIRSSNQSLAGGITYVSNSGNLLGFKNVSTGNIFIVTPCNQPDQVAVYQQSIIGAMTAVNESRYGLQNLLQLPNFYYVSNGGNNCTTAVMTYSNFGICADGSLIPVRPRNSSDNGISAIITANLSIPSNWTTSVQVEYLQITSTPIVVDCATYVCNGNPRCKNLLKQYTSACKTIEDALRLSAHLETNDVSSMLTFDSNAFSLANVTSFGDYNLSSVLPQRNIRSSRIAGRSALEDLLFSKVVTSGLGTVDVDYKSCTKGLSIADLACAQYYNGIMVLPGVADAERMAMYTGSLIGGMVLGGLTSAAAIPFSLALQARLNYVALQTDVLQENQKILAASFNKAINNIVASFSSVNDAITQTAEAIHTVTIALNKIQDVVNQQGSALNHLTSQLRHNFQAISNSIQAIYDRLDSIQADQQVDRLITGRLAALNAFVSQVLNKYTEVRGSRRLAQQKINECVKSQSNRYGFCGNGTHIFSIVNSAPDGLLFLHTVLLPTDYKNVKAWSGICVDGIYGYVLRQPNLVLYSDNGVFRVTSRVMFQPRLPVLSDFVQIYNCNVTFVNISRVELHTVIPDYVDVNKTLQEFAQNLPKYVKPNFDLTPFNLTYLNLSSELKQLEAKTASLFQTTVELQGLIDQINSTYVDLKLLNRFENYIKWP

B1: COV_2093 (antibody, V domains shown)
VH: EVQLVESGGGLVQPGGSLRLSCAASGFMFNRFWMSWVRQAPGKGLEWVTNIKQDGSEKNYVDSVKGRFTISRDNAKNSLYLQMNSLRAEDTAVYYCARDGLYYDFRSPSPFYGMDVWGQGTTVTVSS
VL: DIQMTQSPSSLSASVGDRVTITCRASQSISSYLNWYQHKSGKAPKLLIYAASRLQSGVPSRFSGSGSGTDFTLTIVSLQPEDLATYYCQQSYSTPRTFGGGTKVEIKR
notes: human IgG1
B1: no binding [1]; no binding [2].

B2: COV_2143 (antibody, V domains shown)
VH: EVQLVESGGGVVQPGRSLRLSCAASGFTFNSFAMLWVRQAPGKGLEWVALFSYDGSNKYYADSVKGRFTISRDNSKNTLYLQMNNLRAVDTAVYYCARASPYDINGYYLHRIAFDIWGQGTMVTVSS
VL: QSVLMQPPSVSGAPGQRVTISCTGSSSNIGAGYDVHWYQQLPGTAPKLLMYGNSNRPSGVPDRFSGSKSGTSASLAITGLQAEDEADYYCQSYDSGLSGWVFGGGTKLTVLG
notes: human IgG1
B2: no binding [1]; no binding [2].

B3: COV_2172 (SEQ ID NO:872/877) (antibody, V domains shown)
VH: EVQLVESGGGVVQPGRSLRLSCAPSGFTFSTYAMHWVRQAPGKGLEWVAVISYDGSIKYYADSVKGRFTISRDNTMNTVFLQMNSLRAEDTAVYFCAKGGERWELFTSFDYWGQGTQVTVSS
VL: QSALTQPRSVSGSPGQSVTISCTGTSSDVGGYNYVSWYQQHPGKAPKLMIYDVSKRPSGVPDRFSGSKSGNTASLTISGLQAEDEADYYCCSYAGSYTFVFGGGTKLTVLG
B3: no binding [1]; no binding [2].

B4: COV_2174 (antibody, V domains shown)
VH: EVQLAESGGGLVKPGGSLRLSCAASGFTFSDYYMSWIRQAPGKGLEWVSYISSSGSTIYYADSVKGRFTISRDNAKNSLYLQMNSLRAEDTAVYYCARDWSVVVVPAAPAVDVWGQGTTVTVSS
VL: DIQMTQSPSSLSASVGDRVTITCRASQGISNYLAWFQQKPGKAPKSLIYAASSLQSGVPSKFSGSGSGTDFTLTISSLQPEDFATYYCQQYNSYPLTFGGGTKVEIKR
notes: human IgG1
B4: no binding [1]; no binding [2].

B5: COV_3077 (antibody, V domains shown)
VH: QVQLQESGPGLVKPSETLSLTCAVSGYSISSGYYWGWIRQPPGKGLEWIGSIYHSGSTYYNPSLKSRVTISVDTSKNQFSLKLSSVTAADTAVYYCARALYDAFDIWGQGTMVTVSS
VL: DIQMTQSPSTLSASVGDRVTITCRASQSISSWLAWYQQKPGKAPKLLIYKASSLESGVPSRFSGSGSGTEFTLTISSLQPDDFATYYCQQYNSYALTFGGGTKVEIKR
notes: human IgG1
B5: no binding [1]; no binding [2].

B6: COV_2014 (antibody, V domains shown)
VH: QVQLVQSGAEVKKPGASVKVSCKVSGYTLTELSMHWVRQAPGKGLEWMGGFDPEDGETIYAQKFQGRVTMTEDTSTDTAYMELSSLRSEDTAVYYCATGKINYYDSSGYYGTFDYWGQGTLVTVSS
VL: AIQLTQSPSSLSASVGDRVTITCRASQGISSYLAWYQQKPGKAPKLLIYAASTLQSGVPSRFSGSGSGTDFTLTISSLQPEDFATYYCQQLNSYHLTFGQGTRLEIK
notes: human IgG1
B6: no binding [1]; no binding [2].

B7: COV_2039 (antibody, V domains shown)
VH: QVQLVQSGAEVKKPGASVKVSCKVSGYMLIELSMHWVRQAPGKGLEWMGGFDPEDAETIYAQEFQGRVTMTEDTSTDTAYMELSSLRSEDTAVYYCTTGPAVTNRPADYWGPGTLVTVSS
VL: QSVLTQPPSVSGAPGQRVTISCTGSSSNIGASYDVHWYQQLPGTAPKLLIYANSNRPSGVPDRFSGSKSGTSASLAITGLQAEDEADYYCQSYDSSLSYSVVFGGGTKLTVL
notes: human IgG1
B7: no binding [1]; no binding [2].

B8: COV_2025 (antibody, V domains shown)
VH: QVHLVQSGAEVKKPGASVKVSCKVSGYTLVELSVHWVRQAPAKGLEWIGGFDPEDGETIYAQKFQGRVTMTEDTSTDTAYMELTNLRSEDTAVYYCVTSQPFVSPNWFDPWGQGTLVTVSS
VL: QSALTQPASVSGSPGQSITISCTGTSRDVGAYNYVSWYQQHPGKAPKLMIYEVTTRPSGVSNRFSGSKSGNTASLTISGLQAEDEADYYCSSYTGSRTLVFGTGTKVTVL
notes: human IgG1
B8: no binding [1]; no binding [2].

B9: COV_2123 (antibody, V domains shown)
VH: EVQLVESGGGVVQPGRSLRLSCAASGFTFSSYAMHWVRQAPGKGLEWVAVLSYDGSNKYNADSVKGRFTISRDNSKNTLYLQMNSLRVEDTAMYYCARDGVSVTMVRGVIGPLCDYWGQGTLVTVSS
VL: not shown
notes: human IgG1
B9: no binding [1]; no binding [2].

B10: COV_2027 (antibody, V domains shown)
VH: EVQLVESGGGLIQPGGSLRLSCAASGFSVSTNYMSWVRQAPGKGLEWVSIIYSGGGTYYADSVKGRFTISRDTSENTLYLQMNSLRAEDTAVYYCASFLVGATGQPWYWGQGTLVTVSS
VL: not shown
notes: human IgG1
B10: no binding [1]; no binding [2].

B11: COV_2028 (antibody, V domains shown)
VH: QVQLQESGPGLVKPSGTLSLTCVVSGGSISSSNWWSWVRQPPGKGLEWIGEIYHSGSTNYNPSLKSRVTISVDKSKNQFSLRLTSVTAADTAVYYCARGWNYDYWGQGTLVTVSS
VL: QSALTQPASVSGSPGQSITIACTGTSSDVGSYNLVSWYQQHPGKAPKLMIYEVSKRPSGLSNRFSGSKSGNTASLTISGLQAEDEADYYCYSYAGSSTWVFGGGTKLTVL
notes: human IgG1
B11: no binding [1]; no binding [2].

B12: COV_2037 (antibody, V domains shown)
VH: QVQLVQSGAEVKKPGASVKVSCKVSGYTLTELSMHWVRQAPGKGLEWMGGFDPEDAETIYAQKFQGRVTMTEDTSTDTAYMELSSLRSEDTAVYYCATAGAITGTPTNYSYYYGMDFWGQGTTVTVSS
VL: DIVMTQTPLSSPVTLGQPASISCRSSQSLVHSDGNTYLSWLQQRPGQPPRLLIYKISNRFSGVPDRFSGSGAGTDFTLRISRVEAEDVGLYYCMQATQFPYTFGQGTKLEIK
notes: human IgG1
B12: no binding [1]; no binding [2].

B13: COV_2054 (antibody, V domains shown)
VH: EVQLVESGGGVLQPGRSLRLSCAASGFTFNNYALHWVRQAPGKGLEWVAVISYDGSSKYYADSVRGRLTISRDNSRNTLYLQMNSLRPEDTAIYYCARDGDGLWLGESFYFDDWGQGTLVTVSS
VL: DIQMTQSPSTLSASVGDRVIITCRASQSISSWLAWYQQKPGKAPKLLIYEASTLQSGVPSRFSGSGSGTEFTLTISSLQPDDSATYYCQQYNSYPVHFSQGTKLEIK
notes: human IgG1
B13: no binding [1]; no binding [2].
